From the RNAGym collection of RNA variant scans (doi:10.7554/elife.90254)

B1: LINE1-full (parent)
chain: UACGUAGGUGGUUUUCCCCUGAUAGUGCUAAGGGGGCCUGGAAGUUUGGACUGGGCAGAGCUCAACACAGCGUGGCAAAGUGGCUGUGGCUAGACUGCCUCUCUGGAUUCCUCGUCACUCAGCAGGGCAUCUCUGAGAGAAAUGCC

Variants of: B1
Experiment: self-cleavage, relative activity (ratio to wild type); higher = more cleavage; in vitro, sequencing; the parent is a self-cleaving ribozyme

Compared with U39A G80A, C38U A94G is lower in self-cleavage: 2.24 for the first, 0.29 for the second.

First: G36A G89U
Second: G36C C146G
The self-cleavage of the first is lower: 0.01 for the first, 1.21 for the second.

Compared with G36C C146U, G36C U87A is lower in self-cleavage: 1.29 for the first, 0.14 for the second.

Going from G34U U62C to G36C U62C, the self-cleavage rises from 0.02 to 0.05.

First: G35U C145U
Second: G34A G126A
The self-cleavage of the first is lower: 1.21 for the first, 1.68 for the second.

Going from C38A G55C to G34A U102A, the self-cleavage rises from 0.07 to 1.16.

Going from G34U C146U to G36A C118G, the self-cleavage falls from 1.39 to 1.04.

Compared with G34A U87G, G35A C131U is higher in self-cleavage: 0.2 for the first, 1.67 for the second.

Compared with G36U U104C, U39A A117U is lower in self-cleavage: 2.32 for the first, 1.63 for the second.

Going from G34A A78G to G34A A78U, the self-cleavage rises from 1.27 to 1.75.

Going from C38U A57U to G36A C38A, the self-cleavage rises from 0.15 to 1.18.

First: G35U A124G
Second: G34U A124U
The self-cleavage of the first is lower: 0.68 for the first, 1.6 for the second.

Going from G34U A50U to G34U U47G, the self-cleavage rises from 0.39 to 1.04.

Going from G36C U132C to C37A A136G, the self-cleavage falls from 1.27 to 1.04.

First: G35U U91C
Second: U39A C128G
The self-cleavage of the first is lower: 0.52 for the first, 1.62 for the second.

First: C37U U102A
Second: G35A G83C
The self-cleavage of the first is higher: 1.19 for the first, 0.71 for the second.

Compared with G34U A67G, C38U A136G is higher in self-cleavage: 0.54 for the first, 1.89 for the second.

First: G35C A141G
Second: C38U A78G
The self-cleavage of the first is lower: 0.61 for the first, 1.28 for the second.

Compared with G34A A140U, C37U U134C is lower in self-cleavage: 1.29 for the first, 1.25 for the second.

Going from G35A U130A to G34U U115C, the self-cleavage rises from 1.1 to 1.84.

Going from C37U G54U to C37G A141G, the self-cleavage rises from 0.41 to 1.66.

Going from C38U C98G to C38A, the self-cleavage rises from 0.12 to 1.28.

First: C38U
Second: G34U U100C
The self-cleavage of the first is lower: 1.33 for the first, 1.5 for the second.

Compared with G36C U91C, G35C A94G is lower in self-cleavage: 0.51 for the first, 0.14 for the second.

Going from C37G U91C to C37G U132A, the self-cleavage rises from 0.32 to 1.23.

Compared with C37G U132C, C38U A67G is lower in self-cleavage: 0.94 for the first, 0.42 for the second.

First: C38U A67U
Second: G35U G74A
The self-cleavage of the first is lower: 0.07 for the first, 1.22 for the second.

Going from G36U A141G to G35U A65U, the self-cleavage falls from 0.91 to 0.12.

Compared with G36U A79G, G36C U47C is lower in self-cleavage: 1.3 for the first, 0.92 for the second.

Compared with G36U U96C, C38U U104C is higher in self-cleavage: 0.07 for the first, 1.71 for the second.

Compared with G35U A138G, C38U C101U is higher in self-cleavage: 1.47 for the first, 1.82 for the second.

First: C38A U96G
Second: G36U U62C
The self-cleavage of the first is higher: 0.1 for the first, 0.02 for the second.

Going from C37G U134C to C38U U112C, the self-cleavage rises from 0.66 to 1.35.

Going from G36A U62C to G35U A43U, the self-cleavage rises from 0.05 to 1.33.

Going from G35A A142G to G35A U109A, the self-cleavage rises from 1.14 to 1.59.

First: G35U U112C
Second: G35U U46A
The self-cleavage of the first is lower: 0.75 for the first, 1.07 for the second.

First: U39A G70U
Second: G35U U104C
The self-cleavage of the first is lower: 0.05 for the first, 0.8 for the second.

Going from U39A A42U to U39A A42G, the self-cleavage falls from 1.35 to 1.21.

Going from G35A A64U to G35A A78G, the self-cleavage rises from 0.31 to 0.9.

Compared with G36C C71G, C37U A79G is higher in self-cleavage: 0.15 for the first, 1.1 for the second.

Going from G35C U46C to C38U C61G, the self-cleavage falls from 1.38 to 0.02.

Compared with G36A U45C, C38U A79G is lower in self-cleavage: 1.81 for the first, 1.29 for the second.

Compared with U39A A77U, G35U A77U is lower in self-cleavage: 1.38 for the first, 1.31 for the second.

First: U39A G86A
Second: G35C C113A
The self-cleavage of the first is lower: 0.08 for the first, 1.68 for the second.

Going from G36A U109C to G34C C37U, the self-cleavage rises from 0.75 to 0.84.

Going from C37U A59G to C38A A43G, the self-cleavage rises from 0.07 to 0.59.

Going from C38U A92G to C38U A64G, the self-cleavage rises from 0.05 to 0.17.

Going from C38U A64U to G35U A50U, the self-cleavage rises from 0.35 to 0.57.

Going from G35A U119C to G34A A77U, the self-cleavage rises from 1.3 to 1.33.

Compared with G34C A124U, G34C A124G is higher in self-cleavage: 1.91 for the first, 2.03 for the second.

Going from G36A A77G to G35A A50G, the self-cleavage falls from 1.35 to 0.58.

Compared with C37U C68A, G34U U46A is higher in self-cleavage: 0.03 for the first, 1.32 for the second.

Compared with G36A G105A, G36A U52A is lower in self-cleavage: 1.46 for the first, 1.21 for the second.

Going from C37U A124U to C37U A124G, the self-cleavage falls from 1.12 to 0.59.

Going from C38U A142U to C38U A142G, the self-cleavage rises from 0.32 to 1.4.

Compared with C37U G40A, G36C A121G is higher in self-cleavage: 0.68 for the first, 1.39 for the second.

Compared with G36A A117G, C38U A138C is higher in self-cleavage: 1.34 for the first, 1.46 for the second.

First: G34A G114A
Second: G36U A77G
The self-cleavage of the first is lower: 1.47 for the first, 2.39 for the second.

Compared with C38A A64G, G35U A69G is higher in self-cleavage: 0.18 for the first, 0.6 for the second.

Compared with C37U A57U, C38U U85C is higher in self-cleavage: 0.05 for the first, 0.15 for the second.

Compared with U39A A121U, U39A A121G is higher in self-cleavage: 1.58 for the first, 1.69 for the second.

Compared with C37U U100C, C38A G44U is lower in self-cleavage: 1.66 for the first, 1.48 for the second.

Compared with C37A U45C, C37G A43G is higher in self-cleavage: 1.01 for the first, 1.36 for the second.

First: U39A A64U
Second: U39A A64G
The self-cleavage of the first is higher: 0.47 for the first, 0.21 for the second.

First: G35A A117G
Second: G35A A117U
The self-cleavage of the first is higher: 1.7 for the first, 0.56 for the second.

Compared with G34C U96C, G34A U62C is lower in self-cleavage: 0.14 for the first, 0.02 for the second.

First: C37U A67G
Second: C38U G144A
The self-cleavage of the first is lower: 0.22 for the first, 1.36 for the second.

First: C37U U85A
Second: G36U A140G
The self-cleavage of the first is lower: 0.05 for the first, 1.18 for the second.

Compared with C37G A129G, G35A G72A is higher in self-cleavage: 0.9 for the first, 1.18 for the second.

First: C37U G55A
Second: C37A G58A
The self-cleavage of the first is higher: 0.12 for the first, 0.03 for the second.

Compared with C37A A65G, G34A A67C is higher in self-cleavage: 0.01 for the first, 0.03 for the second.

Going from C37U U47A to G34U C90U, the self-cleavage falls from 1.41 to 0.

First: G34A G72A
Second: G34U A94G
The self-cleavage of the first is higher: 1.24 for the first, 0.26 for the second.

Compared with G34U C63A, G35A A65G is higher in self-cleavage: 0.04 for the first, 0.05 for the second.

Going from C38A U108A to C37U C123U, the self-cleavage rises from 1.01 to 1.67.

Compared with G34C U143C, G35A A42G is lower in self-cleavage: 2 for the first, 1.17 for the second.

First: U39A A43C
Second: U39A A43G
The self-cleavage of the first is higher: 0.66 for the first, 0.63 for the second.

First: C38A U39C
Second: G34A A129G
The self-cleavage of the first is higher: 1.77 for the first, 1.08 for the second.

First: C38U U73C
Second: G36A U119A
The self-cleavage of the first is higher: 1.76 for the first, 1.36 for the second.

First: G36A U119C
Second: G35A U45C
The self-cleavage of the first is higher: 2.42 for the first, 0.97 for the second.

Going from G36A U115C to G36A U115A, the self-cleavage falls from 1.53 to 1.39.

Compared with C38U U87C, C37U U132C is higher in self-cleavage: 0.06 for the first, 1.21 for the second.

Compared with G35U A129G, G36A A141G is lower in self-cleavage: 1.57 for the first, 1.38 for the second.

Variant G35A A57U has a self-cleavage of 0.05.
